In paper PMC3688876 one finds cellular apoptosis (viability by crystal violet, OD570) of MCF-7 PTHrP overexpressing cells pre-incubated with antagonistic anti-TRAIL-R1 antibody (10 µg/ml), then treated with 100 ng/ml Apo2L/TRAIL data, which are given here for one substance.

The assay deals with Apo2L/TRAIL-R1/DR4 (human (endogenous in MCF-7)) (UniProt O00220).
Sequence of UniProt O00220 (O00220 24-468): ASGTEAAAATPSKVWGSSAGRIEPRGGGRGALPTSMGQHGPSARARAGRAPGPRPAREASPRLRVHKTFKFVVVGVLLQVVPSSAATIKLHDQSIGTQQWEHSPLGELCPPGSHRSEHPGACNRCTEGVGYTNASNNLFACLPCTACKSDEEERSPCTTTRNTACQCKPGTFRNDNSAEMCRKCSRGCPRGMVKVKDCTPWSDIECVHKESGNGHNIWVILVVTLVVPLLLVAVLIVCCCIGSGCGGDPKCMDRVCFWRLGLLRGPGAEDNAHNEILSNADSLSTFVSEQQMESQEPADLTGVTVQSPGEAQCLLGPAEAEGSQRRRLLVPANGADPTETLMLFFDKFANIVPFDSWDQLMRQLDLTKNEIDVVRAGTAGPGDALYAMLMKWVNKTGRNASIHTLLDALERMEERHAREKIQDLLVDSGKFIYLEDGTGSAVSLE

Turning to “Human recombinant Apo2L/TRAIL (from UniProt P50591 1-281) (ligand)”, the cellular apoptosis (viability by crystal violet, OD570) of MCF-7 PTHrP overexpressing cells pre-incubated with antagonistic anti-TRAIL-R1 antibody (10 µg/ml), then treated with 100 ng/ml Apo2L/TRAIL was found to be 50%.
